The record followed here is US20180100008A1 (VHSQUARED, published 2018).

The target of assay [1] is T1, TcdB from C. difficile ribotype 027 (Clostridium difficile ribotype 027 …, UniProt P18177 2-2366).
T1 construct: also called 027 TcdB; R20291 (027)
Kind of assay: ELISA, TcdB coated, quadrahead detected with rabbit polyclonal anti-ICVD. On the technique in general: An ELISA detects its analyte on a solid surface through an enzyme-linked reagent.

Assay [2] concerns the target T2, TcdB from C. difficile ribotype 087 (Clostridium difficile ribotype 087 …, UniProt P18177 2-2366).
T2 construct: also called 087 TcdB; 10463 (087)
The assay is described as follows: sandwich ELISA (figure legend).

The target in assay [3] is T2, TcdB from C. difficile ribotype 087. Kind of assay: sandwich ELISA: TcdB coated, quadrahead, then TcdA, rabbit anti-TcdA pAb.
The target of assay [4] is T1, TcdB from C. difficile ribotype 027. Described as above.

B1: ID1C (bispecific antibody)
chain: DVQLQESGGGLVQAGGSLRLSCAASGATSDVYAIGWFRQVPGKEREFVATINRSGSDSYYADSVKGRFTISRDNAKNTVYLQMNSLKPEETAVYYCAASRSDCIGYGCRRVSQDYWGQGTQVTVSSGGGGSGGGGSGGGGSGGGGSDVQLQESGGGLVQAGGSLRLSCVISGMDFSHKPAGWFRQAPGKEREFVASITTRASTHYADSVKGRFTISRDNAKNTVYLEMNSLKPEDTAVYYCNSEYYWGQGTQVTVSSGGGGSGGGGSGGGGSGGGGSDVQLQESGGGLVQAGDSLRLSCAASGATLSSYTIGWFRQAPEKEREFVAGSSRDGRTNYYANSVKGRFTISRDNAKNTVYLQMNSLKPEDTAVYYCAAHTTSGVPVRERSYAYWGQGTQVTVSSGGGGSGGGGSGGGGSGGGGSDVQLQESGGGLVQAGGSLRLSCAASGATFSSYYIGWFRQAPGKEREFVAAINGSGGNRISADSVKGRFTISRDNAKNTVYLQLNSLKPEDTAVYYCAASLTYYGRSARYDYWGQGTQVTVSS
For B1, the binding result in assay [1] and in assay [2] was “binds” in each case.

B2: ID3C (bispecific antibody)
chain: DVQLQESGGGLVQAGDSLRLSCAASGATLSSYTIGWFRQAPEKEREFVAGSSRDGRTNYYANSVKGRFTISRDNAKNTVYLQMNSLKPEDTAVYYCAAHTTSGVPVRERSYAYWGQGTQVTVSSGGGGSGGGGSGGGGSGGGGSDVQLQESGGGLVQAGGSLRLSCAASGATSDVYAIGWFRQVPGKEREFVATINRSGSDSYYADSVKGRFTISRDNAKNTVYLQMNSLKPEETAVYYCAASRSDCIGYGCRRVSQDYWGQGTQVTVSSGGGGSGGGGSGGGGSGGGGSDVQLQESGGGLVQAGGSLRLSCVISGMDFSHKPAGWFRQAPGKEREFVASITTRASTHYADSVKGRFTISRDNAKNTVYLEMNSLKPEDTAVYYCNSEYYWGQGTQVTVSSGGGGSGGGGSGGGGSGGGGSDVQLQESGGGLVQAGGSLRLSCAASGATFSSYYIGWFRQAPGKEREFVAAINGSGGNRISADSVKGRFTISRDNAKNTVYLQLNSLKPEDTAVYYCAASLTYYGRSARYDYWGQGTQVTVSS
For the molecule B2, the binding result in assay [3] and in assay [4] was “binds” throughout.
